# PMC12714728 (npj Viruses, 2025)
# Positions of bridges follow the written chain, without caps; N, C: chain ends. No end group written: not given here.
# B1: cyclic peptide CP14 (peptide)
# peptide: LYEDPLGVAGGMG
# modifications: head-to-tail lactam cyclized (no template)
# notes: source: synthetic peptide (manual solid phase Fmoc chemistry, RP-HPLC)
# B2: cyclic peptide CP13 (peptide)
# peptide: CYRDPLGVAGEMC
# modifications: not fully specified; cysteine pairing not given here
# B3: cyclic peptide CP11 (peptide)
# peptide: CYRDPLGVAGGMC
# modifications: disulfide 1-13
# notes: source: synthetic peptide (manual solid phase Fmoc chemistry, iodine oxidation, RP-HPLC)
# B4: cyclic peptide CP8 (peptide)
# peptide: CLYRDPLGVAGGMGC
# modifications: not fully specified (bridges); cysteine pairing not given here
# notes: as for B3
# Target: H1/Bri HA, A/Brisbane/59/07 (H1N1) hemagglutinin, C-terminally biotinylated, for the CCI assay (influenza A virus A/Brisbane/59/07 …, C-terminal biotin)
# Test: cell-based or functional assay
row,Binder,conformational change inhibition assay (CCI) IC50 [µM]
1,B1,1.24
2,B2,39.4
3,B3,8.52
4,B4,0.54
